In this test the target is E. coli RNA polymerase (E. coli) (UniProt P0A7Z4).
E. coli RNA polymerase (E. coli), sequence (P0A7Z4 whole entry, looked up): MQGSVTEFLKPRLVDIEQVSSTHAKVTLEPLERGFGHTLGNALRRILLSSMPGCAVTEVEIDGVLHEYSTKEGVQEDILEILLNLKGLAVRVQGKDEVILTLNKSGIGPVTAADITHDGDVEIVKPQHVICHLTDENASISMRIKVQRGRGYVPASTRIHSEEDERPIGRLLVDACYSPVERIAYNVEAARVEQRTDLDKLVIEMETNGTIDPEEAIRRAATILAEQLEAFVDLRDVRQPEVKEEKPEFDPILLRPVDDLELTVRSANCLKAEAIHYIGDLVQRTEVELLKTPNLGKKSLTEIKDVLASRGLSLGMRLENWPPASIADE

B1: Escherichia coli RfaH (natural protein)
chain: MQSWYLLYCKRGQLQRAQEHLERQAVNCLAPMITLEKIVRGKRTAVSEPLFPNYLFVEFDPEVIHTTTINATRGVSHFVRFGASPAIVPSAVIHQLSVYKPKDIVDPATPYPGDKVIITEGAFEGFQAIFTEPDGEARSMLLLNLINKEIKHSVKNTEFRKL
Molecule B1 had an Exo III footprinting of the upstream boundary of the ops TEC (100 nM RfaH) of 7 nt.

Source of the values: PMC6595482 (Molecular microbiology, 2018).
